T1: human gasdermin D (GSDMD), full length (human, UniProt P57764 1-484, chemically biotinylated (sites not given) in the SPR experiments)
T1 construct: Used in SPR (biotinylated), nanoDSF and the liposome assay; the same entry is used for endogenous GSDMD of THP-1 cells; also called wild type, human GSDMD; GSDMD 1-484
T1 sequence: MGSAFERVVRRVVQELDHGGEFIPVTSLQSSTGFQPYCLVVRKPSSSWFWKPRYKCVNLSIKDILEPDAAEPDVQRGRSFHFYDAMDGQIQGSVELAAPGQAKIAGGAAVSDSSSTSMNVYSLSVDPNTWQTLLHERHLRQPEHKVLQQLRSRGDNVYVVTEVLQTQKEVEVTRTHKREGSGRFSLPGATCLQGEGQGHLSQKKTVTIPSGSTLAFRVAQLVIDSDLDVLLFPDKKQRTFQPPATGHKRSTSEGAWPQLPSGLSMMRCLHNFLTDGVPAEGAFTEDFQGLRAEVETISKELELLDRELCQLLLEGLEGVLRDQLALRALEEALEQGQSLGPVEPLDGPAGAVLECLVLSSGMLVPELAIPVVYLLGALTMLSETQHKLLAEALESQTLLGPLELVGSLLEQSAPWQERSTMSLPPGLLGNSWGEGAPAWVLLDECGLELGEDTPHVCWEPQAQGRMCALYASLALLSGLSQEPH

T2: GSDMD^CT (human, UniProt P57764)
T2 construct: domain fused to Renilla luciferase; LUMIER bait; also called GSDMD^CT-Renilla luciferase fusion
T2 sequence (single chain, looked up): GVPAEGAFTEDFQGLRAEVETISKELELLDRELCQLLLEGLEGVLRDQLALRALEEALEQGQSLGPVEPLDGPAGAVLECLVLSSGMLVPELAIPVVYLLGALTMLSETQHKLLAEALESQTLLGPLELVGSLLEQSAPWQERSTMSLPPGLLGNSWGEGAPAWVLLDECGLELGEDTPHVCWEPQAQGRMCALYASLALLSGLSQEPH

T3: murine GsdmD (murine, UniProt Q9D8T2 1-487)
T3 construct: not shown: Renilla luciferase
T3 sequence (looked up): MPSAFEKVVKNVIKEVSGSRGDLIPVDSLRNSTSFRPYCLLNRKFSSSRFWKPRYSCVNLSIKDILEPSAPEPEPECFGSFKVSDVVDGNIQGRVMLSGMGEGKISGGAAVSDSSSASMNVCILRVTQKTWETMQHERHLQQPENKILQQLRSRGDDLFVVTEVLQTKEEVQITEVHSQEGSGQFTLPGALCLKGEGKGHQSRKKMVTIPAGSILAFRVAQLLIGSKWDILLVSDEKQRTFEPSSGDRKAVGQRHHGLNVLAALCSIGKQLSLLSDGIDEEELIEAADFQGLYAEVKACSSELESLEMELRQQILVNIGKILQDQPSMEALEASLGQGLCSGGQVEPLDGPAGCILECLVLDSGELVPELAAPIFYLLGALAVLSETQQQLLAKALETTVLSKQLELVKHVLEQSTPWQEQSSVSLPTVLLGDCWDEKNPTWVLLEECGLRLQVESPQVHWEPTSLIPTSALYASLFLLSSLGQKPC

B1: VHHGSDMD-6 (VHH)
VHH: QVQLVETGGGLVQPGGSLRLSCTASGFIFSANQMNWVRQAPGKGLEWLSGISTRGDTTSYADSVKGRFTISRDNAKNTLYLQMNSLQPDDTAVYFCARVCIRGPEPKLRCDDWGQGTQVTVSS
notes: Alpaca single-domain antibody; The crystal model holds VHH-6 residues 1-123; also called VHH AK-G08; VHH-6; not shown: C-terminal HA-His tag (recombinant protein: SPR, nanoDSF, liposome assay, crystal, ELISA)
B2: VHHGSDMD-1 (VHH)
VHH: QVQLVESGGALVQPGGSLRLSCSASGFTFSKYLMSWYRQAPGKERELVATITTAGGNTNYADSVKGRFTISRDNAKNTVYLQMNSLKPEDTAVYYCKASGGTIRTVNETYWGQGTQVTVSS
notes: Alpaca single-domain antibody; One entry is used for all tag variants; also called VHH AK-A04; VHH-1; not shown: C-terminal tag that differs by assay: LPETG-His (recombinant protein: SPR, nanoDSF, liposome assay), HA-His6 (ELISA), HA
B3: VHH-4 (VHH)
VHH: QVQLVESGGGLVQPGGSLRLSCAASGFTLDRHAIAWFRQAPGLEREGVVCTSSSGAITNTADSVKGRFTISRDDAKNTVYLQMNSLKPEDTAIYYCAVRELWTVQPICEPRPRAYAYWGQGTQVTVSS
notes: Alpaca single-domain antibody; also called VHH AK-C10; GSDMD4; not shown: C-terminal HA-His tag (recombinant protein: SPR, nanoDSF, liposome assay, ELISA)
B4: VHHGSDMD-2 (VHH)
VHH: QVQLVESGGGLVQPGGSLRLSCVDSRSWINVYGANWYRQAPGKERELVAALTSGGTTNYADSVKGRFTISRDNAKNTVYLQMRDLKPEDTAVYYCNLERYTGSSVYPWGQGTQVTVSS
notes: Alpaca single-domain antibody; The crystal model holds VHH-2 residues 1-118; One entry is used for all tag variants; also called VHH AK-C03; VHH-2; not shown: C-terminal tag that differs by assay: LPETG-His (recombinant protein: SPR, nanoDSF, liposome assay, crystal), HA-His6 (E)
B5: VHHGSDMD-3 (VHH)
VHH: QVQLVETGGGLVQPGGSLRLSCAASGFTLDIYNMGWFRQAPGKEREGVSCISSRYGTSTYYADSVKGRFTISRDNAKNTVYLQMNNLKPEDTAVYYCATVSWRFTTNQDVCLTPSVSGYWGQGTQVTVSS
notes: Alpaca single-domain antibody; One entry is used for all tag variants; also called VHH AK-H12; VHH-3; not shown: C-terminal tag that differs by assay: LPETG-His (recombinant protein: SPR, nanoDSF, liposome assay), HA-His6 (ELISA), HA
B6: VHHGSDMD-5 (VHH)
VHH: QVQLVETGGGLVQPGGSLRLSCAASGFVFSINPMNWYRQAPGKERELVAYISMRGSTTNYADSVKGRFIISRDNAKNTLYLQMNSLKPEDTAVYYCNAPSRSVWGQGTQVTVSS
notes: Alpaca single-domain antibody; also called VHH AK-G04; VHH-5; not shown: C-terminal HA-His tag (recombinant protein: SPR, nanoDSF, liposome assay, ELISA) or HA tag (LUMIER)

How the values were obtained:
[1] = molecular target: T1, human gasdermin D (GSDMD), full length; assay: nanoDSF thermal shift, equimolar GSDMD and nanobody
Method: (§1) One representative out of three experiments is shown. d, Unfolding temperatures of GSDMD, the nanobodies and GSDMD-nanobody complexes were determined using nanoDSF. The unfolding temperatures of GSDMD at 5 μM and the GSDMD nanobody complexes after addition of 5 μM nanobody are shown. N=x, data represented with SD. e, Unfolding temperatures of GSDMD and GSDMD-nanobody complexes.
(§2) The thermal stability of the nanobodies and their impact on the thermostability of GSDMD was further analyzed using a thermal shift assay by nano-differential scanning fluorimetry (FIG. 11D, E and FIG. 18).

[2] = molecular target: T1, human gasdermin D (GSDMD), full length; assay: SPR (Biacore 8K), chemically biotinylated GSDMD immobilised, VHH as analyte, multi-cycle kinetics, 1:1 fit
Method: (§3) Chemically biotinylated GSDMD was immobilized on a sensor chip and nanobodies were injected as analytes at the indicated concentrations for 120 s, followed by dissociation for 300 s. Dissociation constants (KDs) were determined from the association and dissociation fits by applying a 1:1 binding model. d, Epitope binning assay.
(§4) Surface plasmon resonance experiments were performed using a Biacore 8K instrument (GE Healthcare). The flow system was cleaned using the maintenance “Desorb” function (Desorb Kit, GE Healthcare). The system was flushed with running buffer (20 mM HEPES (pH 8.0), 200 mM NaCl, 5 mM DTT, 0.05% Tween20) and all steps were performed at 25° C. chip temperature. Chemically biotinylated GSDMD at a concentration of 100 nM was immobilized for 180 s on the flow cell 2 of a Series S Sensor Chip CAP using a biotin capture kit and a flow rate of 30 μl/min. The system was washed for 600 s with running buffer with a flow rate of 30 μl/min. Binding affinities were determined using multi-cycle kinetics. […] The association step was carried out for 120 s and the dissociation step for 300 s.

[3] = molecular target: T1, human gasdermin D (GSDMD), full length; assay: nanoDSF thermal shift, 5 µM GSDMD + 5 µM VHH; SD 0.5 °C; GSDMD alone 50.2 °C (SD 0.3)
Method: as §1, §2

[4] = molecular target: T1, human gasdermin D (GSDMD), full length; assay: nanoDSF titration, 5 µM GSDMD + 5 µM VHH; SD 0.5; GSDMD 5 µM alone 50.2 °C, VHH-6 50 µM alone 42.6 and 53.5 °C
Method: (§5) The melting temperatures of GSDMD and the nanobodies alone were determined at concentrations of 5 and 50 μM, respectively.

[5] = molecular target: T1, human gasdermin D (GSDMD), full length; assay: nanoDSF titration, 5 µM GSDMD + 5 µM VHH; SD 1.0; GSDMD 5 µM alone 50.2 °C, VHH-1 50 µM alone 67.6 °C
Method: as §5

[6] = molecular target: T2, GSDMD^CT; assay: LUMIER co-IP in HEK293T, HA-tagged VHH with Renilla luciferase fusion
[7] = molecular target: T1, human gasdermin D (GSDMD), full length; assay: SPR (Biacore 8K), biotinylated GSDMD immobilized, nanobody as analyte, multi-cycle kinetics, 1:1 model
Method: as §3, §4

[8] = molecular target: T1, human gasdermin D (GSDMD), full length; assay: nanoDSF thermal shift, 5 µM GSDMD + 5 µM VHH; SD 1.0 °C; GSDMD alone 50.2 °C (SD 0.3)
Method: as §1, §2

[9] = molecular target: T3, murine GsdmD; assay: LUMIER co-IP in HEK293T, HA-tagged VHH with Renilla luciferase fusion
[10] = molecular target: T1, human gasdermin D (GSDMD), full length; assay: nanoDSF titration, 5 µM GSDMD + 5 µM VHH; SD 1.0; GSDMD 5 µM alone 50.2 °C, VHH-2 50 µM alone 58.0 °C
Method: as §5

[11] = molecular target: T1, human gasdermin D (GSDMD), full length; assay: nanoDSF titration, 5 µM GSDMD + 5 µM VHH; SD 1.3; GSDMD 5 µM alone 50.2 °C, VHH-3 50 µM alone 59.1 °C
Method: as §5

[12] = molecular target: T1, human gasdermin D (GSDMD), full length; assay: nanoDSF thermal shift, 5 µM GSDMD + 5 µM VHH; SD 1.3 °C; GSDMD alone 50.2 °C (SD 0.3)
Method: as §1, §2

[13] = molecular target: T1, human gasdermin D (GSDMD), full length; assay: nanoDSF thermal shift, 5 µM GSDMD + 5 µM VHH; SD 0.8 °C; GSDMD alone 50.2 °C (SD 0.3)
Method: as §1, §2

[14] = molecular target: T1, human gasdermin D (GSDMD), full length; assay: nanoDSF titration, 5 µM GSDMD + 5 µM VHH; SD 0.8; GSDMD 5 µM alone 50.2 °C, VHH-5 50 µM alone 58.5 °C
Method: as §5

Row | Binder | increase of the thermal stability of GSDMD [1] [°C] | binding result [6] | Kd [7] [nM] | Tm of GSDMD with the VHH [8] [°C] | binding result [9] | further results
1 | B1 | 4.2 | – | – | – | – | Kd [2]: 280 nM; Tm of GSDMD with the VHH [3]: 54.4 °C; Tm of GSDMD with the VHH [4]: 54.4 °C
2 | B2 | ≤ 9.4 | no binding | 0.55 | 59.6 | no binding | Tm of GSDMD with the VHH [5]: 59.6 °C
3 | B3 | – | no binding | – | – | – | –
4 | B4 | ≤ 9.4 | no binding | 8.24 | 56 | no binding | Tm of GSDMD with the VHH [10]: 56 °C
5 | B5 | ≤ 9.4 | no binding | 2.19 | – | – | Tm of GSDMD with the VHH [11]: 54.1 °C; Tm of GSDMD with the VHH [12]: 54.1 °C
6 | B6 | – | no binding | 4.14 | – | – | decrease of the melting temperature of GSDMD [1]: ≤ 2.5 °C; Tm of GSDMD with the VHH [13]: 48.8 °C; Tm of GSDMD with the VHH [14]: 48.8 °C
